“And” between values parts separate entries of the source, which are not always exact repeats. Identical values can stand only once.
Test: Small angle X-ray scattering
Assay type: physicochemical, M. tuberculosis
Conditions: for Rg [from Guinier] / Rg [from P(r)]: BM29 ESRF, 10°C; for Rg [from Guinier]: 50 mM Tris pH 8.0, 200 mM NaCl, 2 mM βME; for Rg [from P(r)]: pH 8.0

Substance | Rg [from Guinier] [nm] | Rg [from P(r)] | Rg in presence of nicked DNA (presence of nicked DNA substrate (S1), from P(r)) [nm]
MtbLigA: M. tuberculosis NAD^+-dependent DNA ligase A, full-length | 5.22±0.08 | 5.20 nm and 5.20±0.06 nm | 4.49
MtbLigA+Nicked DNA: MtbLigA in complex with 27-mer nicked DNA (S1) | 4.49±0.07 | 4.49±0.06 nm | 

Source: PMC7530888 (Nucleic Acids Research, 2020)
